US20130123173A1, “CREATION OF OXIDATION-RESISTANT HDL MIMETIC PEPTIDES” (The Regents of the University of California, priority 2010, published 2013)
Entries after “also recorded” stand apart in the source; their conditions may differ.

Tests used:
J774 macrophages [1] = settings: background statement; cited from earlier work
atherosclerosis = settings: mice fed high-fat western-diet; cited from earlier work
J774 macrophages [2] = assay: Cholesterol efflux from cAMP-treated J774 macrophages (ABCA1 cholesterol efflux); assay type: cell-based; settings: for change of cholesterol efflux activity upon exposure to acrolein: excess molar acrolein; for cholesterol efflux activity: no oxidant exposure, lipid-free peptides, cAMP-treated J774 macrophages
Protocol: FIG. 1 provides data showing the sensitivity of ABCA1 efflux peptide ATI-5261 and an analog to acrolein. ATI-5261 was engineered with arginine (R) in place of lysine (K) at positions 5 and 25 (K5, 25/R), creating an oxidation-resistant analog. […] Panel B. Dependence of cholesterol efflux on ABCA1 expression, as judged with and without cAMP (no oxidant exposure). Peptides were used in lipid-free form at […]. Panel C. Peptides were incubated (37° C., 24 h) with acrolein at a molar ratio of 50:1 (acrolein:peptide) in the presence of DTPA; excess aminoguanidine was added to terminate reactions and peptides dialyzed to PBS. Cholesterol efflux (8 h) was assessed using cAMP-treated J774 cells and peptides at 2 mg/ml. Values are % of control efflux with peptides not treated with acrolein.
Panel D. Impact of varying molar ratio of acrolein relative to ATI-5261 on cholesterol efflux from cAMP treated J774 cells.
Suitable cholesterol efflux assays are described in, e.g., Bielicki, J. K and Oda, M. N., Biochemistry, 41:2089-2096 (2002); Jia et al., Biochem. Biophys. Res. Common., 297:206-213 (2002). In some embodiments, a polypeptide known to mediate cholesterol efflux (e.g., helix 9/10 of Apo A-I) is used to screen for additional mediators of cholesterol efflux in a cell based assay. For example, cell lines in which cholesterol efflux can be enhanced using a cAMP analog that up-regulates ABCA1 protein expression (e.g., J774 macrophages) can conveniently be used to assess the ability of a polypeptide of the present invention to mediate cholesterol efflux. The cells are incubated with labeled cholesterol (e.g., [^3H]cholesterol) under conditions appropriate for cholesterol uptake by the cells. Thus, cAMP or cAMP analogs (e.g., CPT-cAMP) are incubated with the cells for a suitable time before the initiation of cellular cholesterol efflux, i.e., prior to contacting the cells with a test polypeptide. Measurement of labeled cholesterol appearing in the medium is used to determine the cholesterol efflux mediating activity of the test polypeptide.

[3] = α-helical content (secondary structure) of peptides with and without acrolein; assay type: physicochemical; settings: for α-helical content: 10 mM phosphate buffer (pH=7.4); for α-helical content, comparison in words: FIG. 2 legend, vs ATI-5261 control or vs untreated peptide
Protocol: FIG. 2 provides data showing the % α-helical content of ATI-5261 and the K5, 25→R analog peptide. Peptides in 10 mM phosphate buffer (pH=7.4) were analyzed. […] Biosyn. denotes source (commercial vendor) used to synthesize peptides (same for all peptides).

[4] = SDS-PAGE analysis of peptides following exposure to acrolein (cross-linking); assay type: physicochemical; settings: 20-fold molar excess of acrolein, 37° C., 20 h
Protocol: Peptides ATI-5261 and K5,25 were exposed to 20-fold molar excess of acrolein or buffer alone and incubated 37° C. for 20 h. Lane 1—MW standards (kDa); lane 2, K5,25→R peptide exposed to acrolein; Lane3, ATI-5261 exposed to acrolein; lane 4, K5, 25→R peptide buffer control; Lane 5, ATI-5261 buffer control. Peptide loads were 3 μg/well.

[5] = system: macrophage reverse cholesterol transport; assay: Macrophage reverse cholesterol transport upon exposure to oxidative stress; assay type: in vivo; settings: vs ATI-5261
ABCA1 = ABCA1 (UniProt P41233 1-2261, limits assumed); assay: cell-based or functional assay
Chain of ABCA1 (P41233 whole entry): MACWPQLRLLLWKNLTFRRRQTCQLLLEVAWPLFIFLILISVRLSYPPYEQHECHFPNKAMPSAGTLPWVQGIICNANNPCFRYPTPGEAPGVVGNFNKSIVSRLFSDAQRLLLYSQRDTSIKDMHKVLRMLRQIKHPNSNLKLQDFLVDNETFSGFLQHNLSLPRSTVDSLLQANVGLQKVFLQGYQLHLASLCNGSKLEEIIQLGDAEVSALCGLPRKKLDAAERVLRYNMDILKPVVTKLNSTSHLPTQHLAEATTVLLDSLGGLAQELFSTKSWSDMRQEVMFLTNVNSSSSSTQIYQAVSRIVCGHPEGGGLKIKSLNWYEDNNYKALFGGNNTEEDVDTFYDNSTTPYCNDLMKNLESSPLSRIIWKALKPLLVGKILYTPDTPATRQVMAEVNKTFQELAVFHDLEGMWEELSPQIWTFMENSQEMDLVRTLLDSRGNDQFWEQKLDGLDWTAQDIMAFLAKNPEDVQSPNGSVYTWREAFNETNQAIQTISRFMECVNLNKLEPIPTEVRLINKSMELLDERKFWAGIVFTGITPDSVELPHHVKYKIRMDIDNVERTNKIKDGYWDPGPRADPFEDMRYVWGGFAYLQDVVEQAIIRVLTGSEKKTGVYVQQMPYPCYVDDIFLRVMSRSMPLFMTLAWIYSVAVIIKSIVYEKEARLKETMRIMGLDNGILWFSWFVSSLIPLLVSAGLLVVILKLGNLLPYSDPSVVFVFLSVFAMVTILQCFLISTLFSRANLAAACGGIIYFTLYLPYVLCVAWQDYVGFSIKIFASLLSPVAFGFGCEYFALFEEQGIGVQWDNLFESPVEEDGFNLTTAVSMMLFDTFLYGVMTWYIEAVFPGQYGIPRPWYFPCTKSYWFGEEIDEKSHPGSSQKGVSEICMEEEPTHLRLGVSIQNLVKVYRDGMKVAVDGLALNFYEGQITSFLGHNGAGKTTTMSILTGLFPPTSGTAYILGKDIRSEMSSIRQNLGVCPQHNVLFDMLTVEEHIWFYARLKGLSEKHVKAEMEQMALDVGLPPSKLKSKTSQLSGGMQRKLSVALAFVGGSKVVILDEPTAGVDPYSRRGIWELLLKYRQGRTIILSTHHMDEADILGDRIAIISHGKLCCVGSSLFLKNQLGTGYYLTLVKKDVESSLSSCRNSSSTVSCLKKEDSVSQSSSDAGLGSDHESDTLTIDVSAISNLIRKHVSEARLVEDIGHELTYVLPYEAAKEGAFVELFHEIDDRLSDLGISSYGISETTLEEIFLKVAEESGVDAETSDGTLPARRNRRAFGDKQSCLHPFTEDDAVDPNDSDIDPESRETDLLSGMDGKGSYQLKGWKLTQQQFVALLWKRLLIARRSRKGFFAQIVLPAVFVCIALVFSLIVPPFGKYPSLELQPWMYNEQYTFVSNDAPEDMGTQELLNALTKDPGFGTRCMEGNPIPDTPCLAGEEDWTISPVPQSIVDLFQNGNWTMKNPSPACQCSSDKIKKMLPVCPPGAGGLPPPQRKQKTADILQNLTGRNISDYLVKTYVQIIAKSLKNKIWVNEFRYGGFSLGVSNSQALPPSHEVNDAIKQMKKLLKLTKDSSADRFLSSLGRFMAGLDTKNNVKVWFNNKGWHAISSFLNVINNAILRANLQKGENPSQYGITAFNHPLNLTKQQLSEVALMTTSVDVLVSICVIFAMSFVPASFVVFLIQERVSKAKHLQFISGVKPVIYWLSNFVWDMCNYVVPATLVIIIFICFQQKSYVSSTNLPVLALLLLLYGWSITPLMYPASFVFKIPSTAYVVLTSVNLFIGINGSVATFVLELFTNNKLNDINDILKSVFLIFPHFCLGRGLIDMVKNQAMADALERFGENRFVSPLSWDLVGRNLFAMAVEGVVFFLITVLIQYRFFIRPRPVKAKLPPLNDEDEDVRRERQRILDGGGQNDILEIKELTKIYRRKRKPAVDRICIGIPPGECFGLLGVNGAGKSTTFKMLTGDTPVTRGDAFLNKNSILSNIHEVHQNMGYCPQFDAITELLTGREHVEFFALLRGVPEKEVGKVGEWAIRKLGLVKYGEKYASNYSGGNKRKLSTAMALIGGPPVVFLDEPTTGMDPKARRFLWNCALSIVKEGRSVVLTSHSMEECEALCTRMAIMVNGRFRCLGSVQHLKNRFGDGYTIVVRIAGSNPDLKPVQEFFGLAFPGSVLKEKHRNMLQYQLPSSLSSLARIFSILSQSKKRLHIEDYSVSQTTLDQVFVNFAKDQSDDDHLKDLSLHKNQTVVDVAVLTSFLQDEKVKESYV

Row | reduction of cholesterol efflux activity after acrolein exposure, molar acrolein:peptide ratio 5:1 (ABCA1) [%] | reduction of cholesterol efflux activity after acrolein exposure, molar acrolein:peptide ratio 10:1 (ABCA1) [%] | reduction of cholesterol efflux activity after acrolein exposure, molar acrolein:peptide ratio 20:1 (ABCA1) [%] | Molecule | molar potency for ABCA1 cholesterol efflux relative to native apoA-I (J774 macrophages [1]) | effect on atherosclerosis (atherosclerosis) | change of cholesterol efflux activity upon exposure to acrolein (J774 macrophages [2]) | cholesterol efflux activity (J774 macrophages [2]) | α-helical content ([3]; +Acrolein) [%] | α-helical content, comparison in words [3] | α-helical content ([3]; no acrolein) [%] | cross-linking of the peptide after acrolein treatment [4] | augmentation of cholesterol efflux activity by acrolein (J774 macrophages [2]; acrolein-treated peptide vs untreated peptide) [%] | cholesterol efflux activity (J774 macrophages [2]; listed as K→R) | macrophage reverse cholesterol transport [5]
1 |  |  |  | EVRSKLEEWFAAFREFAEEFLARLKS (synthetic amphipathic alpha helix HDL mimetic peptide ATI-5261 susceptible to oxidation that stimulates ATP binding cassette protein ABCA1-dependent cholesterol efflux based on apolipoprotein AI (ApoA-I) alpha-helical motif) [26-mer prototype/parent HDL mimetic ABCA1 efflux peptide, oxidation susceptible, reference compound] | nearly the same molar potency as native apoA-I | reduce substantial atherosclerosis | marked decrease in cholesterol efflux activity | stimulated cholesterol efflux (4 h) efficiently | 48.3 | significantly lower helical content | 72.7 | substantial cross-linking |  |  | 
2 |  |  |  | EVRSRLEEWFAAFREFAEEFLARLRS [K5,25→R, ATI-5261 with arginine in place of lysine at positions 5 and 25] |  |  | increased upon exposure to acrolein | stimulated cholesterol efflux (4 h) efficiently | 72.6 | lower α-helical content compared to the ATI-5261 control; also recorded: increase in α-helical content | 56.8 |  | ~70 | no effect on cholesterol efflux activity | greatly improved macrophage reverse cholesterol transport
3 | 50 | 70 | 93 | EVRSKLEEWFAAFREFAEEFLARLKS [ATI-5261] |  |  |  |  |  |  |  |  |  |  | 
